The target in the experiment is T1, XSA2 (Xenopus laevis (endogenous in egg …, UniProt Q9DGN0 1-1194)).
T1 sequence: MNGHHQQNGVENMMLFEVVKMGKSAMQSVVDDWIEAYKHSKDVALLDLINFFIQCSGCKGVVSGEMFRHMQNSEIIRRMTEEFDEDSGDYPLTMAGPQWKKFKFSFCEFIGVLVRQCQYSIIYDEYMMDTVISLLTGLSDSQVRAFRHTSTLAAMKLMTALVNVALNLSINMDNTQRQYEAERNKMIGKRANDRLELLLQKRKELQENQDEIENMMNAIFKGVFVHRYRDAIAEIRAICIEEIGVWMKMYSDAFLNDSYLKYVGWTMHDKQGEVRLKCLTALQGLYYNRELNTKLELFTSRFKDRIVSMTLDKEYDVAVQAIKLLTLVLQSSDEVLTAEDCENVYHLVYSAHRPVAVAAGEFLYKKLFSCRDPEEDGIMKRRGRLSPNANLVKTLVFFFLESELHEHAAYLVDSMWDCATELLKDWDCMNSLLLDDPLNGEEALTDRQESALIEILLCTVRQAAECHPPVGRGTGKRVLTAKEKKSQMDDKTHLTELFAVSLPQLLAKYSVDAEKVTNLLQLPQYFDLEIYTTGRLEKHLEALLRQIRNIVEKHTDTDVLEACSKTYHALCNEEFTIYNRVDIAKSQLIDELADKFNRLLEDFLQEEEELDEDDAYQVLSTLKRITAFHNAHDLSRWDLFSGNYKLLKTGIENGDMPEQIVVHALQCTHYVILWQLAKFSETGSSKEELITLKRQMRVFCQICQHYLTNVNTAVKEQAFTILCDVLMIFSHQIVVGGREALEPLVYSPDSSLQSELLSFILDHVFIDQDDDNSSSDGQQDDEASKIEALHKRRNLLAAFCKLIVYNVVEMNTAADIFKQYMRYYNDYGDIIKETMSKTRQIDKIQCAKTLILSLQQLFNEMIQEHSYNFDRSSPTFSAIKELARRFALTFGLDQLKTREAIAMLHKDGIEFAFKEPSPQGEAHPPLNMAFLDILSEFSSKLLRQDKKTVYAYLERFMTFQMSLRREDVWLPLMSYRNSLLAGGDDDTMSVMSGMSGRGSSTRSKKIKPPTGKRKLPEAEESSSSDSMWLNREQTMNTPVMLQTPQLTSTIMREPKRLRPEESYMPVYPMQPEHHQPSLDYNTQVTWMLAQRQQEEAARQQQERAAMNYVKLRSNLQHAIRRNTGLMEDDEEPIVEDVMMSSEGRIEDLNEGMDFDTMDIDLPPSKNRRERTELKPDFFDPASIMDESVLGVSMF
As to the kind of experiment: co-IP.

B1: XSMC3 (natural protein)
chain: MYIKQVIIQGFRSYRDQTIVDPFSSKHNVIVGRNGSGKSNFFYAIQFVLSDEFSHLRPEQRLALLHEGTGPRVISAFVEIIFDNSDNRLPIDKEEVSLRRVIGAKKDQYFLDKKMVTKNDVMNLLESAGFSRSNPYYIVKQGKINQMATAPDSQRLKLLREVAGTRVYDERKEESISLMKETEGKRDKINELLKYIEERLHTLEEEKEELAQYQKWDKMRRALEYTIYNQELNETRAKLDELSSKRETSGEKSRQLRDAQQDARDKMEEIERQVRELKSKISAMKEEKEQLSSERQEQIKQRTKLELKTKDLQDELAGNSEQRKRLLKERQKLLEKIEEKQKELAETEPKFSSVKQKEESGIARLAQATQERTDLYAKQGRGSQFTSKEERDKWIKKELKSLDQAINDKKRQIAAINKDLEETEVNKEKNLEQYTKLDQDLNEVKTRVEELDKKYYEVKNKKDELQSERNYLWREENAEQQSLAAKREDLEKKQQLLRAATGKAILNGIDSINKVLEHFRRKGINQHVINGYHGIVMNNFDCEPAFYTCVEVTAGNRLFYHIVESDEVSTKILMEFNKMNLPGEVTFLPLNKLDVRDTAYPETNDAIPMISKLRYNLRFDKAFKHVFGKTLICRSMEVSTQLARAFTMDCITLEGDQVSHRGALTGGYYDTRKSRLELQKDVRKVEDELHALEAKLNENLRRNIERINNEIDQLMNQMQQIETQQRKFKASRDSILSEMKMLKEKRQQSEKTFMPKQRSLQSLEASLHAMESTRESLKAELGTDLLSQLSLEDQKRVDALNDEIRQLQQENRQLLNERIKLEGTITRVETYLNENLRKRLDQVEQELNELRETEGGTVLTATTSELEAINKRVKDTLARSEGLDITIDKTEVESKDLVKSMDRWKNMEKDHMDAINHDTKELEKMTNRQGMLLKKKEECMKKIRELGSLPQEAFEKYQTLSLKQLFRKLEQCNTELKKYSHVNKKALDQFVNFSEQKEKLIKRQEELDRGHKSIMELMNVLELRKYEAIQLTFKQVSKNFSEVFQKLVPGGKATLVMKKGDVEGSQSQDEGEGSTQSSVPSVDQFTGVGIRVSFTGKQAEMREMQQLSGGQKSLVALALIFAIQKCDPAPFYLFDEIDQALDAQHRKAVSDMIMELASHAQFITTTFRPELLESADKFYGVKFRNKVSHIDVITAEQAKDFVEDDTTHG
For the molecule B1, the “percent depleted from the extract by anti-XSA2” value is around 5%.

B2: XSMC1 (natural protein)
chain: MGFLKLIEIENFKSYKGRQIIGPFHRFTAIIGPNGSGKSNLMDAISFVLGEKTSNLRVKTLRDLIHGAPVGKPAANRAFVSMVYSEDSGEEKVFSRVIVGGSSEYKINNKVVQLSEYSDSLEKLGILIKARNFLVFQGAVESIAMKNPKERTALFEEISRSGELAQEYDKRKKEMVKAEEDTQFNYHRKKNIAAERKEAKQEKEEAERYQRLKDEVARAQIQLQLFKLYHNESEIEKLNKELSVKNKGIEKDKKHMDKVEEELKDKKKELGKMMREQQAIEKEIKEKDAELNQKLPQYIKAKENPSHKIKKFRAAKKSLQNAQKQYKKRKADMDELEKEMLSVEKARQEFEERMEEESQSQGRDLTLEENQVKKYHRLKEEASKRAATLAQELEKFNRDQKADQDRLDLEERKKVETEAKIKQKLRELEENQKRIEKLEEYIATSKQSLEEQKNLEETLTEEVEMAKRRIDEINSELNQVMEQLGDARIDRQESSRQQRKAEIMESIKRLYPGSVYGRLIDLCQPTQKKYQIAVTKVLGKNMDAIIVDSEKTGRDCIQYIKEQRGEPETFLPLDYLEVKPTDERLRELKGAKLVIDVIRYEPPHIKKALQYACGNALVCDNVEDARRIAFGGHQRHKTVALDGTLFQKSGVISGGASDLKAKARRWDEKAVDKLKEKKERLTEELKEQMKAKRKEAELRQVQSQAHGLQMRLKYSQSDLEQTKTRHLAMNMQEKSKLESELANFSPRINDIKRIIQSRDREMKDLKEKMNQVEDEVFEEFCREIGVRNIREFEEEKVKRQNEIAKKRLEFENQKTRLGIQLDYEKNQLKEDQGKVQTWEQSVKKDDNEIEKLKKEEQRHMKIIDETMAQLQDLKNQHLAKKSEVNDKNHLMEDIRKKLGSANKEVTHLQKEVTAIETKLEQKRSDRHNLLQACKMSDIKLPLSKGTMDDISQEEGSSQGEESASSSQRSSTVYAKEALIEIDYSDLSEDLKDAVADDDIKQEMSALHQKINEQQSILQRISAPNMKAMEKLESVRDKFQETSDEFEAARKRAKKAKQAFEQTKKERFDRFNACFESVATNIDEIYKALSRNSSAQAFLGPENPEEPYLDGINYNCVAPGKRFRPMDNLSGGEKTVAALALLFAIHSYKPSPFFVLDEIDAALDNTNIGKVANYIKEQSMSNFQAIVISLKEEFYTKAESLIGVYPEQGDCVISKVLTFDLTKYPDANPNPND
Turning to B2, the “percent depleted from the extract by anti-XSA2” value was around 5%.
